Measurements: patent US20150307590A1 (GOVERNORS OF THE UNIVERSITY OF ALBERTA, published 2015)

Tests used:
[1] = biological target: T1, human IL-28R alpha subunit (human, UniProt Q8IU57 21-228, limits assumed); test: ELISA (right panel)
T1 construct: also called IL28R1; IL-28R1
T1 sequence: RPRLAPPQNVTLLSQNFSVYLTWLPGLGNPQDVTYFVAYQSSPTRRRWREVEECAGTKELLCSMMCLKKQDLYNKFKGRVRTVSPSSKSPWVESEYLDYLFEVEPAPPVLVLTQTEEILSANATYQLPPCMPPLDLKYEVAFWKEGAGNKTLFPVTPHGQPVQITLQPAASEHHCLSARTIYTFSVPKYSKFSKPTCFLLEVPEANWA

[2] = biological target: T1, human IL-28R alpha subunit; test: Biacore assay (left panel), n=6

B1: Peptide 17 (IL29T-2) (peptide)
peptide: KLKNWSCSSPVFPGNWDLRL
notes: also called 28pep17; p17
Does B1 bind [1]?
Result: binds

B2: Peptide 2 (IL28-1) (peptide)
peptide: ELQAFKRAKDALEESLLL
notes: also called 28pep2; Pep2
Does B2 bind [1]?
Result: binds

B3: human IL-28A (ligand)
chain: VPVARLHGALPDARGCHIAQFKSLSPQELQAFKRAKDALEESLLLKDCRCHSRLFPRTWDLRQLQVRERPMALEAELALTLKVLEATADTDPALVDVLDQPLHTLHHILSQFRACIQPQPTAGPRTRGRLHHWLYRLQEAPKKESPGCLEASVTFNLFRLLTRDLNCVASGDLCV
notes: also called IFN-λ2; interferon-lambda-2
Does B3 bind [2]?
Result: binds

B4: human IL-28B (ligand)
chain: VPVARLRGALPDARGCHIAQFKSLSPQELQAFKRAKDALEESLLLKDCKCRSRLFPRTWDLRQLQVRERPVALEAELALTLKVLEATADTDPALGDVLDQPLHTLHHILSQLRACIQPQPTAGPRTRGRLHHWLHRLQEAPKKESPGCLEASVTFNLFRLLTRDLNCVASGDLCV
notes: also called IFN-λ3; interferon-lambda-3
Does B4 bind [2]?
Result: binds

B5: Peptide 18 (IL28BT-3) (peptide)
peptide: EATADTDPALGDVLDQPL
notes: also called 28pep18
Does B5 bind [1]?
Result: binds

B6: Peptide 15 (IL28BT-2) (peptide)
peptide: LLKDCKCRSRLFPRTWDLRQ
notes: also called 28pep15
Does B6 bind [1]?
Result: binds

B7: Peptide 16 (IL28AT-2) (peptide)
peptide: LLKDCRCHSRLFPRTWDLRQ
notes: also called 28pep16
Does B7 bind [1]?
Result: binds

B8: Peptide 1 (IL29-1) (peptide)
peptide: ELASFKKARDALEESLKL
notes: also called 28pep1; Pep1
Does B8 bind [1]?
Result: binds

B9: human IL-29 (ligand)
chain: GPVPTSKPTTTGKGCHIGRFKSLSPQELASFKKARDALEESLKLKNWSCSSPVFPGNWDLRLLQVRERPVALEAELALTLKVLEAAAGPALEDVLDQPLHTLHHILSQLQACIQPQPTAGPRPRGRLHHWLHRLQEAPKKESAGCLEASVTFNLFRLLTRDLKYVADGNLCLRTSTHPEST
notes: also called IFN-λ1; interferon-lambda-1
Does B9 bind [2]?
Result: binds
